Experiments:
purified protein [1] = substrate: N#Cc1cn([C@@H]2O[C@H](COP(=O)(O)O)[C@@H](O)[C@H]2O)c2nc(N)[nH]c(=O)c12; assay: purified protein; assay type: biochemical, Thermococcus kodakarensis; details: 200 μM lysine co-substrate, pH 7.6, 5 mM MgCl2, 50 mM KCl, no 2-mercaptoethanol, 60 °C, unit μM from text b23 (table heading prints μmol)
purified protein [2] = substrate: NCCCC[C@H](N)C(=O)O; assay: purified protein; assay type: biochemical, Thermococcus kodakarensis; details: 204 μM S. cerevisiae tRNA-Phe-preQ0 co-substrate, pH 7.6, 5 mM MgCl2, 50 mM KCl, 60 °C, labelled compound, unit μM from text b13 (table heading prints μmol)

B1: ArcS and RaSEA complex (ArcS-RaSEA complex) (Thermococcus kodakarensis KOD1) (protein)
chain: MEVIKHEGPGRLGVVRLGDYSFRTPALVGIDFTLSPFNSFFHPKEPGEYDFNLAPSIPLGFYTPDEVIQKAIGRLWSVNYDGFNAFYLPALRRTEYLEEFFKIIDRHNFDAVYLGNSKILIKEYRYFVRILRELRERFPNVMIIADLEPFFYPLAVYLGIDAFDTRSLKLYDFEGKGFTQFSPFLWSNEPNSLDFAREVILLVRKALEEGKLRYLVENFFPTQYNAGILRIADLEHPDYLEKYTPIQKETVYFISDASIRRPEVKRWHERVLERFTPPKNVELLLLFPCSAKKPYSFSRSHTLYRRAVKEALGSGTSKVHELILTSPFGVVPREWEWLAKYDIVVTGHWSEEEIKPAAELLAKTLEKYPEDIPIVAHLDEAYVEIAKLASELSGREIIFTDVKNGTTSHESLRSLTETLREFQIEGTKEDRTYRYFENIRKVFDFYFGVGAGEAILPENGQVKGSKMLRIFVEGQQTGTFTDGVISVTPYGMQRIYDALKSYWVKIDFELRGDVFAVGVEEADPRIRPDDIVGIVRDEKVVGVGKAVLSGEEMVRAKKGVAVKVRKRV
notes: recombinant complex expressed in E. coli, purified aerobically (RaSEA apo, no Fe-S cluster); His x 6-ArcS given for the co-expression; with Archaeosine synthase subunit beta
Km (purified protein [1]): 433.4 ± 6.0 µM
kcat (purified protein [1]): 0.387 ± 0.0617 s⁻¹
Km (purified protein [2]): 40.9 ± 8.7 µM
kcat (purified protein [2]): 0.102 ± 0.0117 s⁻¹

Source: paper PMC11298593, “ArcS from Thermococcus kodakarensis transfers L-lysine to preQ0 nucleoside derivatives as minimum substrate RNAs” (The Journal of Biological Chemistry, 2024)
